Source: doi:10.1101/710897v1

Test system: O=c1[nH]c(=O)c2[nH]cnc2[nH]1
Assay: cells, lysate or membranes
Conditions: labelled compound, H+ symport, MM pH 6.8, 37 °C

Substance	Km [µM]
UapA (Aspergillus nidulans FGSC A4)	5 ± 2
UapA (Aspergillus nidulans FGSC A4; K73A/R133A)	3.6
